Results reported in US7314724B2, “Therapeutic applications of laminin and laminin-derived protein fragments” (University of Washington, priority 1996, dated 2008).

Molecular target: T1, biotinylated Aβ (1-40) (Homo sapiens, UniProt P05067)
T1 construct: Aβ (1-40) was biotinylated according to the manufacturer's protocol (Pierce, Rockford, Ill.)
Assay: Aβ ligand blot of undigested and V8-, trypsin- or elastase-digested EHS laminin
Format: binding
Conditions: 2 μM biotinylated Aβ (1-40), SDS-PAGE under non-reducing conditions
Method: For these experiments, Aβ (1-40) was biotinylated according to the manufacturer's protocol (Pierce, Rockford, Ill.). For the ligand studies, intact EHS laminin was left undigested, or digested with V8 or trypsin (Sigma Chemical Company, St. Louis, Mo., USA). More specifically, 2 μg of trypsin or V8 protease in 2 μl of 50 MM Tris-HCl buffer (pH 8.0) were added to 50 μl of laminin (50 μg)(in the same buffer) and incubated overnight at 37° C. The next day, 10 μl of protease-digested laminin (or undigested laminin) was mixed with 10 μl of 2× sodium dodecyl sulfate polyacrylamide gel electrophoresis (SDS-PAGE) sample buffer, and heated for 5 minutes in a boiling water bath. SDS-PAGE was performed according to the method of Laemmli (Laemmli, U.K. Nature 227:680-685, 1970), or according to the method of Schägger and Jagow (Schägger and Jagow, Anal. Biochem. 166:368-379, 1987) using a Mini-Protean II electrophoresis system (Biorad) with precast 4-15% Tris-Glycine or 10-20% tricine polyacrylamide gels, respectively, and under non-reducing conditions. Electrophoresis occurred at 200V for 45 minutes along with pre-stained molecular weight standards. After SDS-PAGE (10-20% tricine or 4-15% Tris-Glycine gels) was performed as described above, the separated laminin and its fragments (total protein of 10 μg/lane) were transferred to polyvinylidine difluoride membrane (PVDF) using a Mini transblot electrophoresis transfer cell (Biorad, Hercules, Calif., U.S.A.). Electrotransfer was performed at 100V for 2 hours. Following transfer, membranes were rinsed with methanol and dried. The fragment(s) of laminin involved in binding to Aβ were then detected by using biotinylated-Aβ (1-40), as described above. Blots were probed for 2 hours with 2 μM biotinylated Aβ (1-40) in TTBS. The membranes were then rinsed three times (10 seconds each) with TTBS, probed for 30 minutes with strepavidin alkaline phosphatase conjugate (Vectastain), rinsed again (as described above), and followed by the addition of an alkaline phosphatase substrate solution (Vectastain). Following color development, the reaction was stopped by flushing the membranes with double distilled water. In the next set of studies, we determined whether small fragment(s) of laminin generated by elastase digestion would bind to Aβ. […] For these experiments, Aβ (1-40) was biotinylated according to the manufacturer's protocol (Pierce, Rockford, Ill.). For the ligand studies, intact EHS laminin was left undigested, or digested with elastase (Sigma Chemical Company, St. Louis, Mo., USA). For elastase digestion, 2 μg of elastase in 8 μl of 50 mM Tris-HCl buffer (pH 8.0) was added to 50 μl of laminin (50 μg)(in the same buffer) and incubated for 1.5 hours or 2.5 hours at 37° C. In addition, as a control, 2 μg of elastase in 50 μl of 50 mM Tris-HCl buffer (pH 8.0) was incubated for 2.5 hours at 37° C. Following the appropriate incubation times as described above, 10 μl of each of the above incubations were mixed with 10 μl of 2× SDS-PAGE electrophoresis sample buffer, and heated for 5 minutes in a boiling water bath. SDS-PAGE was performed according to the method of Laemmli (Laemmli, Nature 227:680-685, 1970) using a Mini-Protean II electrophoresis system with precast 4-15% Tris-Glycine polyacrylamide gels, and under non-reducing conditions. Electrophoresis occurred at 200V for 45 minutes along with pre-stained molecular weight standards (Biorad). After SDS-PAGE was performed as described above, the separated laminin fragments were transferred to PVDF using a Mini transblot electrophoresis transfer cell (Millipore, Bedford, Mass., U.S.A.). Electrotransfer was performed at 100V for 2 hours. Following transfer, membranes were rinsed with methanol, dried and cut into two equal parts which were used for Aβ ligand blotting, or Coomassie blue staining and subsequent amino acid sequencing. The fragment(s) of laminin involved in binding to Aβ were then detected by using biotinylated-Aβ (1-40), as described above. […]

T1 sequence (P05067 672-711 limits assumed): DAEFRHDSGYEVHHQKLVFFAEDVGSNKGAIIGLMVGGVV

With “laminin: Engelbreth-Holm-Swarm (EHS) mouse tumor laminin (Sigma); 850 kDa basement membrane glycoprotein of A, B1 and B2 chains” the “interaction with biotinylated Aβ (1-40) on ligand blot, in words” value was “most prominent Aβ-interaction”.
